# From patent US20220177560A1 (Janssen / Centocor, published 2022)
# T1: Scrambled 3pE-28 (human)
# T1 construct: also called scrambled Aβ 3pE-28; Aβ 3pE-28 peptide with amino acids 3-9 scrambled
# T1 peptide: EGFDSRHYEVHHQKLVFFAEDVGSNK
# T2: mouse Aβ 3pE-28 peptide (mouse, pyroglutamate (pE) at the N-terminus, residue 3 of Aβ)
# T2 construct: also called rodent Aβ3pE-28
# T2 peptide: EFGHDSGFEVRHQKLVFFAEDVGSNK
# Columns and labels:
# [1] = molecular target: human Aβ 1-28 peptide (human); assay: SPR; no binding up to the maximum 1.2 µM tested
# Chain of human Aβ 1-28 peptide (human) (peptide, as listed by the source): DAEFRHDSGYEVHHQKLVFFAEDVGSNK
# [2] = molecular target: T1, Scrambled 3pE-28; assay: SPR; no binding up to the maximum 1.2 µM tested
# [3] = molecular target: human Aβ 1-28 peptide (human); assay: SPR; KD limit divided by the KD for human 3pE Aβ
# [4] = molecular target: T1, Scrambled 3pE-28; assay: SPR; KD limit divided by the KD for human 3pE Aβ
# [5] = molecular target: T2, mouse Aβ 3pE-28 peptide; assay: SPR, antibody captured, peptide injected, 1:1 fit
# [6] = molecular target: T3, HU-3pE-beta-Amyloid (human); assay: SPR (per Example 5); antigen peptide not given
# T3 construct: also called the peptide
# [7] = molecular target: T2, mouse Aβ 3pE-28 peptide; assay: SPR; KD for this peptide divided by the KD for human 3pE Aβ
# [8] = molecular target: T4, human Aβ 3pE-28 peptide (human, pyroglutamate (pE) at the N-terminus, residue 3 of Aβ); assay: SPR, antibody captured on anti-human or anti-mouse Ig chip, peptide injected, 1:1 fit; N=9
# T4 sequence (peptide, as listed by the source): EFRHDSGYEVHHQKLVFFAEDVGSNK
# [9] = molecular target: T4, human Aβ 3pE-28 peptide; assay: SPR; same value as in Table 5
# [10] = molecular target: T3, HU-3pE-beta-Amyloid; assay: SPR; HU-3pE-beta-Amyloid 0.6 to 4.5 nM
# [11] = molecular target: T5, human FcRn (human, UniProt P55899 24-297; P61769 21-119); assay: FcRn binding affinity; method not described; average of 5-6 replicates
# T5 construct: the construct is not described; also called FcRn (human)
# [12] = molecular target: T6, cynomolgus FcRn (cynomolgus, UniProt Q8SPV9 24-297; Q8SPW0 21-119); assay: as above
# T6 construct: the construct is not described; also called FcRn (cyno)
# T6 sequence (Q8SPV9 24-297 limits assumed, chain 1 of 2): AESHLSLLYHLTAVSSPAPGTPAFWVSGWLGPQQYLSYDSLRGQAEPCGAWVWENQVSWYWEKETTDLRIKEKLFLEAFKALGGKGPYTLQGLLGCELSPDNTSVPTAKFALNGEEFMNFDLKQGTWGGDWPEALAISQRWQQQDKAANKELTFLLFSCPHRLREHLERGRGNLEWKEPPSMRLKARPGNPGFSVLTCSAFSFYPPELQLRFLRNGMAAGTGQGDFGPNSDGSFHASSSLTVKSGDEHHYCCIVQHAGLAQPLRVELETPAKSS
# T6 sequence (Q8SPW0 21-119 limits assumed, chain 2 of 2): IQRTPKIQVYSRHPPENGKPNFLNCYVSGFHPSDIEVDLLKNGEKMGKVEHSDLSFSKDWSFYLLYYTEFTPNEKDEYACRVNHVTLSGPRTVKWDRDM
# [13] = molecular target: T5, human FcRn; assay: FcRn binding affinity; method not described
# [14] = molecular target: T6, cynomolgus FcRn; assay: FcRn binding affinity; method not described
Kd [1],Kd [2],Fold Selectivity [3],Fold Selectivity [4],Kd [5],koff [5],kon [5],Kd [6],Fold Selectivity [7],Kd [8],koff [8],kon [8],Kd [9],Kd [10],koff [10],kon [10],Kd [11],Kd [12],fold higher affinity compared with wt IgG1 (BAMB674) [13],fold higher affinity compared with wt IgG1 (BAMB674) [14],Binder
> 1200 nM,> 1200 nM,> 95000 fold,> 95000 fold,39.6 nM,0.000404 s⁻¹,10200 M⁻¹ s⁻¹,0.0139 nM,3140 fold,0.0126 nM,4.42e-05 s⁻¹,3.53e+06 M⁻¹ s⁻¹,,,,,,,,,"BAMB246 (human IgG1 chimera) (antibody, Mouse variable regions on a human IgG1 constant region; also called human chimeric parent; huIgG1 chimera) heavy: not shown light: DVVMTQTPLTLSVTIGQPASISCKSSQSLLDSNGKTYLTWLLQRPGQSPKRLIYLVSKLDSGVPDRFTGSGAGTDFTLKIIRVEAEDLGVYYCWQGTHFPYTFGGGTKLEIKRTVAAPSVFIFPPSDEQLKSGTASVVCLLNNFYPREAKVQWKVDNALQSGNSQESVTEQDSKDSTYSLSSTLTLSKADYEKHKVYACEVTHQGLSSPVTKSFNRGEC"
> 1200 nM,> 1200 nM,> 47000 fold,> 47000 fold,45.5 nM,0.000338 s⁻¹,7400 M⁻¹ s⁻¹,,1790 fold,0.0254 nM,8.32e-05 s⁻¹,3.27e+06 M⁻¹ s⁻¹,0.0254 nM,0.0401 nM,0.000136 s⁻¹,3.39e+06 M⁻¹ s⁻¹,349 nM,268 nM,,,"BAMB674 (antibody, human IgG1, kappa, Lead HFA variant, wild type human IgG1, HCDR2 N55S; also called BAMAB674; BAMB31 HFA mAb, wild type IgG1) heavy: not shown light: DVVMTQSPLSLPVTLGQPASISCKSSQSLLDSRAKTYLTWLQQRPGQSPRRLIYLVSKLDSGVPDRFSGSGSGTDFTLKISRVEAEDVGVYYCWQGTHFPYTFGGGTKLEIKRTVAAPSVFIFPPSDEQLKSGTASVVCLLNNFYPREAKVQWKVDNALQSGNSQESVTEQDSKDSTYSLSSTLTLSKADYEKHKVYACEVTHQGLSSPVTKSFNRGEC"
,,,,,,,,,,,,,0.0342 nM,9.86e-05 s⁻¹,2.88e+06 M⁻¹ s⁻¹,,,,,"BAMB700 (antibody, human IgG1, kappa) heavy: not shown light: DVVMTQSPLSLPVTLGQPASISCKSSQSLLDSRAKTYLTWLQQRPGQSPRRLIYLVSKLDSGVPDRFSGSGSGTDFTLKISRVEAEDVGVYYCWQGTHFPYTFGQGTKLEIKRTVAAPSVFIFPPSDEQLKSGTASVVCLLNNFYPREAKVQWKVDNALQSGNSQESVTEQDSKDSTYSLSSTLTLSKADYEKHKVYACEVTHQGLSSPVTKSFNRGEC"
,,,,,,,,,,,,,0.0314 nM,9.47e-05 s⁻¹,3.01e+06 M⁻¹ s⁻¹,,,,,"BAMB701 (antibody, human IgG1, kappa) heavy: QVQLVQSGAEVKKPGASVKVSCKASGHVFTSYDMYWVRQAPGQGLEWIGYIDSDSGDTSYNQKFKGRVTLTVDTSTSTVYMELSSLRSEDTAVYYCAYYRYAMDYWGQGTLVTVSSASTKGPSVFPLAPSSKSTSGGTAALGCLVKDYFPEPVTVSWNSGALTSGVHTFPAVLQSSGLYSLSSVVTVPSSSLGTQTYICNVNHKPSNTKVDKKVEPKSCDKTHTCPPCPAPELLGGPSVFLFPPKPKDTLYITREPEVTCVVVDVSHEDPEVKFNWYVDGVEVHNAKTKPREEQYNSTYRVVSVLTVLHQDWLNGKEYKCKVSNKALPAPIEKTISKAKGQPREPQVYTLPPSREEMTKNQVSLTCLVKGFYPSDIAVEWESNGQPENNYKTTPPVLDSDGSFFLYSKLTVDKSRWQQGNVFSCSVMHEALHNHYTQKSLSLSPGK light: DVVMTQSPLSLPVTLGQPASISCKSSQSLLDSRAKTYLTWLQQRPGQSPRRLIYLVSKLDSGVPDRFSGSGSGTDFTLKISRVEAEDVGVYYCWQGTHFPYTFGGGTKVEIKRTVAAPSVFIFPPSDEQLKSGTASVVCLLNNFYPREAKVQWKVDNALQSGNSQESVTEQDSKDSTYSLSSTLTLSKADYEKHKVYACEVTHQGLSSPVTKSFNRGEC"
> 1200 nM,> 1200 nM,> 46000 fold,> 46000 fold,77.5 nM,0.000333 s⁻¹,4680 M⁻¹ s⁻¹,,3010 fold,0.0257 nM,8.24e-05 s⁻¹,3.24e+06 M⁻¹ s⁻¹,0.0257 nM,0.0443 nM,0.000166 s⁻¹,3.74e+06 M⁻¹ s⁻¹,111 nM,86.4 nM,~3 fold,~3 fold,"BAMB675 (antibody, human IgG1, kappa, Same V regions as BAMB674; human IgG1 with M37Y, S39T, T41E (YTE) in the Fc (numbering on the constant region, GenBank AEV43323); also called BAMB31 HFA mAb, +YTE IgG1; +YTE mAb) heavy: QVQLVQSGAEVKKPGASVKVSCKASGHVFTSYDMYWVRQAPGQGLEWIGYIDSDSGDTSYNQKFKGRVTLTVDTSTSTVYMELSSLRSEDTAVYYCAYYRYAMDYWGQGTLVTVSSASTKGPSVFPLAPSSKSTSGGTAALGCLVKDYFPEPVTVSWNSGALTSGVHTFPAVLQSSGLYSLSSVVTVPSSSLGTQTYICNVNHKPSNTKVDKKVEPKSCDKTHTCPPCPAPELLGGPSVFLFPPKPKDTLYITREPEVTCVVVDVSHEDPEVKFNWYVDGVEVHNAKTKPREEQYNSTYRVVSVLTVLHQDWLNGKEYKCKVSNKALPAPIEKTISKAKGQPREPQVYTLPPSREEMTKNQVSLTCLVKGFYPSDIAVEWESNGQPENNYKTTPPVLDSDGSFFLYSKLTVDKSRWQQGNVFSCSVMHEALHNHYTQKSLSLSPGK light: DVVMTQSPLSLPVTLGQPASISCKSSQSLLDSRAKTYLTWLQQRPGQSPRRLIYLVSKLDSGVPDRFSGSGSGTDFTLKISRVEAEDVGVYYCWQGTHFPYTFGGGTKLEIKRTVAAPSVFIFPPSDEQLKSGTASVVCLLNNFYPREAKVQWKVDNALQSGNSQESVTEQDSKDSTYSLSSTLTLSKADYEKHKVYACEVTHQGLSSPVTKSFNRGEC"
,,,,,,,0.0183 nM,,,,,,,,,,,,,"BAMB623 (antibody, human IgG1, kappa, V domains shown, HFA variant of BAMB31, human IgG1) VH: QVQLVQSGAEVKKPGASVKVSCKASGHVFTSYDMYWVRQAPGQSLEWIGYIDSDNGDTSYNQKFKGKATMTVDTSTSTVYMELSSLRSEDTAVYYCAYYRYAMDYWGQGTLVTVSS VL: DVVMTQSPLSLPVTLGQPASISCKSSQSLLDSRAKTYLTWLQQRPGQSPRRLIYLVSKLDSGVPDRFSGSGSGTDFTLKISRVEAEDVGVYYCWQGTHFPYTFGGGTKLEIKR"
